From IntAct's records for PubMed 17006541

B1: DNA topoisomerase 2-binding protein 1 (Homo sapiens), Q92547 (parent)
chain: MSRNDKEPFFVKFLKSSDNSKCFFKALESIKEFQSEEYLQIITEEEALKIKENDRSLYICDPFSGVVFDHLKKLGCRIVGPQVVIFCMHHQRCVPRAEHPVYNMVMSDVTISCTSLEKEKREEVHKYVQMMGGRVYRDLNVSVTHLIAGEVGSKKYLVAANLKKPILLPSWIKTLWEKSQEKKITRYTDINMEDFKCPIFLGCIICVTGLCGLDRKEVQQLTVKHGGQYMGQLKMNECTHLIVQEPKGQKYECAKRWNVHCVTTQWFFDSIEKGFCQDESIYKTEPRPEAKTMPNSSTPTSQINTIDSRTLSDVSNISNINASCVSESICNSLNSKLEPTLENLENLDVSAFQAPEDLLDGCRIYLCGFSGRKLDKLRRLINSGGGVRFNQLNEDVTHVIVGDYDDELKQFWNKSAHRPHVVGAKWLLECFSKGYMLSEEPYIHANYQPVEIPVSHKPESKAALLKKKNSSFSKKDFAPSEKHEQADEDLLSQYENGSSTVVEAKTSEARPFNDSTHAEPLNDSTHISLQEENQSSVSHCVPDVSTITEEGLFSQKSFLVLGFSNENESNIANIIKENAGKIMSLLSRTVADYAVVPLLGCEVEATVGEVVTNTWLVTCIDYQTLFDPKSNPLFTPVPVMTGMTPLEDCVISFSQCAGAEKESLTFLANLLGASVQEYFVRKSNAKKGMFASTHLILKERGGSKYEAAKKWNLPAVTIAWLLETARTGKRADESHFLIENSTKEERSLETEITNGINLNSDTAEHPGTRLQTHRKTVVTPLDMNRFQSKAFRAVVSQHARQVAASPAVGQPLQKEPSLHLDTPSKFLSKDKLFKPSFDVKDALAALETPGRPSQQKRKPSTPLSEVIVKNLQLALANSSRNAVALSASPQLKEAQSEKEEAPKPLHKVVVCVSKKLSKKQSELNGIAASLGADYRWSFDETVTHFIYQGRPNDTNREYKSVKERGVHIVSEHWLLDCAQECKHLPESLYPHTYNPKMSLDISAVQDGRLCNSRLLSAVSSTKDDEPDPLILEENDVDNMATNNKESAPSNGSGKNDSKGVLTQTLEMRENFQKQLQEIMSATSIVKPQGQRTSLSRSGCNSASSTPDSTRSARSGRSRVLEALRQSRQTVPDVNTEPSQNEQIIWDDPTAREERARLASNLQWPSCPTQYSELQVDIQNLEDSPFQKPLHDSEIAKQAVCDPGNIRVTEAPKHPISEELETPIKDSHLIPTPQAPSIAFPLANPPVAPHPREKIITIEETHEELKKQYIFQLSSLNPQERIDYCHLIEKLGGLVIEKQCFDPTCTHIVVGHPLRNEKYLASVAAGKWVLHRSYLEACRTAGHFVQEEDYEWGSSSILDVLTGINVQQRRLALAAMRWRKKIQQRQESGIVEGAFSGWKVILHVDQSREAGFKRLLQSGGAKVLPGHSVPLFKEATHLFSDLNKLKPDDSGVNIAEAAAQNVYCLRTEYIADYLMQESPPHVENYCLPEAISFIQNNKELGTGLSQKRKAPTEKNKIKRPRVH

Legend:
e2f1_human E2F1, Q01094 = variants of: B1; details: with e2f1_human E2F1, Q01094
e2f1_human E2F1, Q01094, sequence (Q01094 whole entry): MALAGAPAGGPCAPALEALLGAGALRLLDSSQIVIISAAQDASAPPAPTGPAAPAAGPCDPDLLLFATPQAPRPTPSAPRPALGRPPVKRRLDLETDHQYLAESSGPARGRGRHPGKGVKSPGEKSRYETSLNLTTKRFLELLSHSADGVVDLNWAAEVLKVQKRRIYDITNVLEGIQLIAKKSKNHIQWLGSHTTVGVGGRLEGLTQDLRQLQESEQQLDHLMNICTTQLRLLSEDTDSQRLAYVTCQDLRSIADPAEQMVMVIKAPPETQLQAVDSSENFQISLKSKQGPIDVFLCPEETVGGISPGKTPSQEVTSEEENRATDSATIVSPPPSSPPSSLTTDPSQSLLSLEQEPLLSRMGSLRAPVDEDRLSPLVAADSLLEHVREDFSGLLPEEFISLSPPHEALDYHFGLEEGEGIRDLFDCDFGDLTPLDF

akt1_human AKT1, P31749 = variants of: B1; details: with akt1_human AKT1, P31749
akt1_human AKT1, P31749, sequence (P31749 whole entry): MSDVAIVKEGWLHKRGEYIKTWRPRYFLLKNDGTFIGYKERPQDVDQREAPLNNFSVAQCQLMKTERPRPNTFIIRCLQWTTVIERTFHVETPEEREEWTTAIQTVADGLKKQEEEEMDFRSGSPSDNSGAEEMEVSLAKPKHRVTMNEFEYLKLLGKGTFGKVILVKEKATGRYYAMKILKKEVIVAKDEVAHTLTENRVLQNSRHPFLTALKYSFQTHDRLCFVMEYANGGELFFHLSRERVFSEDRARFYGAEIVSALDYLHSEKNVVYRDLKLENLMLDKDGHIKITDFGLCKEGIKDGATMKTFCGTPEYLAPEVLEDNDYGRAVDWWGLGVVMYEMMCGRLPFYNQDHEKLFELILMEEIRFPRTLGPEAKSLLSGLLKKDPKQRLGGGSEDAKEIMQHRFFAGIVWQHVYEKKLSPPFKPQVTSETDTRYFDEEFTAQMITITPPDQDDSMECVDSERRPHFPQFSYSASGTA

[1] = variants of: B1; details: with pias2_human PIAS2, O75928
pias2_human PIAS2, O75928, sequence (O75928 whole entry): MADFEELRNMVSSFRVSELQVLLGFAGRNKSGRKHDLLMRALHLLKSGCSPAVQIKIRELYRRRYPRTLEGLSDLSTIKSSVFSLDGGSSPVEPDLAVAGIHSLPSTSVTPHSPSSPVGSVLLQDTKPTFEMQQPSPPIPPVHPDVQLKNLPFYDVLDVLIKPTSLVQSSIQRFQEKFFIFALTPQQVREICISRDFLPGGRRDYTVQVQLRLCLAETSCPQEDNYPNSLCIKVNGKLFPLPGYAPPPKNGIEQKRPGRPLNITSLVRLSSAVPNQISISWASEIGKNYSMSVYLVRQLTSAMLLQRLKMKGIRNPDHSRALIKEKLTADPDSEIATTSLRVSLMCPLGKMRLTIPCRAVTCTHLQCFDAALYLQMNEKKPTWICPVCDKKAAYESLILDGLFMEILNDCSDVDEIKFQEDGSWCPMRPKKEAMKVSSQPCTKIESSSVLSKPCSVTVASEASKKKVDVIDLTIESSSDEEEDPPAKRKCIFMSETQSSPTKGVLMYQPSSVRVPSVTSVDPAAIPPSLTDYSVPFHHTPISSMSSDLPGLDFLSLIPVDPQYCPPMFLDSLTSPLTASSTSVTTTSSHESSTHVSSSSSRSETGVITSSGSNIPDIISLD

ve2_hpv16 E2, P03120 = variants of: B1; details: with ve2_hpv16 E2, P03120
ve2_hpv16 E2, P03120, sequence (P03120 whole entry): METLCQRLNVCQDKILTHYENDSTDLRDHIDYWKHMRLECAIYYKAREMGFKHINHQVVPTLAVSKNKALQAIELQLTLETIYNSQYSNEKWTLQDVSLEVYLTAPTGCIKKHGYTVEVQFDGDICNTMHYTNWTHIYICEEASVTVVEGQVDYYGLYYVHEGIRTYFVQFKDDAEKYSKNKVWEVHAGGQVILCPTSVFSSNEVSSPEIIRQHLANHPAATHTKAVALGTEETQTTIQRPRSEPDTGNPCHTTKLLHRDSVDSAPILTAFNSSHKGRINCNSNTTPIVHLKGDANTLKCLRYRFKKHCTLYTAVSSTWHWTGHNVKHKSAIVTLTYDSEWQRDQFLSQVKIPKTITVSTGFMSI

Row | Variant | effect of a mutation on the interaction (e2f1_human E2F1, Q01094) | effect of a mutation on the interaction (akt1_human AKT1, P31749) | effect of a mutation on the interaction [1] | effect of a mutation on the interaction (ve2_hpv16 E2, P03120)
1 | S1159D | decreasing interaction | – | – | –
2 | S1159A | disrupting interaction | disrupting interaction | decreasing interaction | decreasing interaction
